Publication PMC5965902

Target: Cys128 (UniProt position 128, FIDQHCSLMKV)
Assay: chemical modification (DTNB/Ellman labelling kinetics followed by UV-vis)
Conditions: room temperature; 150 mM NaCl; 50 mM citric acid, 50 mM HEPES, 50 mM Bicine, pH adjusted with NaOH or HCl; Free (reduced) thiol form of RitR, 5 μM protein with 20 μM DTNB, no DNA

Question: “RitR (Repressor of iron transport Regulator), orphan two-component-like response regulator (Streptococcus pneumoniae (strain R800, R6/D39 derivative))” was tested. Which pKa did it give?
Answer: Its pKa is 6.85.
